Sequences and labels used below:
B1: Phosphoglycerate kinase, P00560 (parent)
chain: MSLSSKLSVQDLDLKDKRVFIRVDFNVPLDGKKITSNQRIVAALPTIKYVLEHHPRYVVLASHLGRPNGERNEKYSLAPVAKELQSLLGKDVTFLNDCVGPEVEAAVKASAPGSVILLENLRYHIEEEGSRKVDGQKVKASKEDVQKFRHELSSLADVYINDAFGTAHRAHSSMVGFDLPQRAAGFLLEKELKYFGKALENPTRPFLAILGGAKVADKIQLIDNLLDKVDSIIIGGGMAFTFKKVLENTEIGDSIFDKAGAEIVPKLMEKAKAKGVEVVLPVDFIIADAFSADANTKTVTDKEGIPAGWQGLDNGPESRKLFAATVAKAKTIVWNGPPGVFEFEKFAAGTKALLDEVVKSSAAGNTVIIGGGDTATVAKKYGVTDKISHVSTGGGASLELLEGKELPGVAFLSEKK

In this series the parent is B1. Conditions: Saccharomyces cerevisiae (strain ATCC 204508 / S288c), pH 7.5, 25 °C, GdnHCl, Sodium phosphate 20 mM, structure 3PGK, whole UniProt chain shown.

Consider MSLSSKLSVQDLDLKDKRVFIRVDFNVPLDGKKITSNQRIVAALPTIKYVLEHHPRYVVLASHLGRPNGERNEKYSLAPVAKELQSLLGKDVTFLNDCVGPEVEAAVKASAPGSVILLENLRYHIEEEGSRKVDGQKVKASKEDVQKFRHELSSLADVYINDAFGTAHRAHSSMVGFDLPQRAAGFLLEKELKYFGKALENPTRPFLAILGGAKVADKIQLIDNLLDKVDSIIIGGGMAFTFKKVLENTEIGDSIFDKAGAEIVPKLMEKAKAKGVEVVLPVDFIIADAFSADANTKTVTDKEGIPAGWQGLDNGPESRKLFAATVAKAKTIVFNGPPGVFEFEKFAAGTKALLDEVVKSSAAGNTVIIGGGDTATVAKKYGVTDKISHVSTGGGASLELLEGKELPGVAFLSEKK [W334F], for which, where the note is “CD”, the “ddG of mutation (higher = less stable)” value stood at 3.93 kcal/mol, the denaturant m value worked out at 8.4 kcal/mol/M, the “denaturant midpoint (higher = more stable)” value (“denaturant midpoint” below) was 0.63 M and the unfolding free energy is 5.38 kcal/mol.
As to MSLSSKLSVQDLDLKDKRVFIRVDFNVPLDGKKITSNQRIVAALPTIKYVLEHHPRYVVLASHLGRPNGERNEKYSLAPVAKELQSLLGKDVTFLNDCVGPEVEAAVKASAPGSVILLENLRYHIEEEGSRKVDGQKVKASKEDVQKFRHELSSLADVYINDAFGTAHRAHSSMVGFDLPQRAAGFLLEKELKYFGKALENPTRPFLAILGGAKVADKIQLIDNLLDKVDSIIIGGGMAFTFKKVLENTEIGDSIFDKAGAEIVPKLMEKAKAKGVEVVLPVDFIIADAFSADANTKTVTDKEGIPAGFQGLDNGPESRKLFAATVAKAKTIVFNGPPGVFEFEKFAAGTKALLDEVVKSSAAGNTVIIGGGDTATVAKKYGVTDKISHVSTGGGASLELLEGKELPGVAFLSEKK [W309F W334F], where the note is “CD”, the “ddG of mutation (higher = less stable)” value is 6.33 kcal/mol, the denaturant m value worked out at 6.1 kcal/mol/M, the “denaturant midpoint” value came to 0.48 M and the unfolding free energy is 2.98 kcal/mol. Further, for the setting “Fluorescence”, the “ddG of mutation (higher = less stable)” value is 8.72 kcal/mol, the denaturant m value worked out at 5.9 kcal/mol/M, the “denaturant midpoint” value worked out at 0.49 M and the unfolding free energy was 3.03 kcal/mol.
Turning to MSLSSKLSVQDLDLKDKRVFIRVDFNVPLDGKKITSNQRIVAALPTIKYVLEHHPRYVVLASHLGRPNGERNEKYSLAPVAKELQSLLGKDVTFLNDCVGPEVEAAVKASAPGSVILLENLRYHIEEEGSRKVDGQKVKASKEDVQKFRHELSSLADVYINDAFGTAHRAHSSMVGFDLPQRAAGFLLEKELKYFGKALENPTRPFLAILGGAKVADKIQLIDNLLDKVDSIIIGGGMAFTFKKVLENTEIGDSIFDKAGAEIVPKLMEKAKAKGVEVVLPVDFIIADAFSADANTKTVTDKEGIPAGFQGLDNGPESRKLFAATVAKAKTIVWNGPPGVFEFEKFAAGTKALLDEVVKSSAAGNTVIIGGGDTATVAKKYGVTDKISHVSTGGGASLELLEGKELPGVAFLSEKK [W309F], under “CD”, the “ddG of mutation (higher = less stable)” value worked out at 3.63 kcal/mol, the denaturant m value was found to be 8.4 kcal/mol/M, the “denaturant midpoint” value was 0.67 M and the unfolding free energy turned out to be 5.68 kcal/mol. For the setting “Fluorescence”, the “ddG of mutation (higher = less stable)” value stood at 3.71 kcal/mol, the denaturant m value is 12.8 kcal/mol/M, the “denaturant midpoint” value came to 0.63 M and the unfolding free energy is 8.04 kcal/mol.

For the origin of these results see FireProtDB (doi:10.1021/bi00174a031).
